# In the DeepSol protein solubility set:
# Assay: soluble on expression in E. coli; label from the status in PepcDB or PDB records
row,Sequence,soluble on expression in E. coli
1,MSEDRSSNGQKSWLGKLTQAFVHEPKNRQELLELLREAHQNKLLDSEALAIVEGAIQVADLQVRDIMVPRSQMISIKATQTPREFLPAVIDAAHSRYPVIGESHDDVLGVLLAKDLLPLILKADGDSDDVKKLLRPATFVPESKRLNVLLREFRANHNHMAIVIDEYGGVAGLVTIEDVLEQIVGDIEDEHDVEEDSYIKPLPSGDFLVKALTPVENFNEFFDSAFSDDEFDTVGGLVMNAFGHLPKRNEITEIGAYRFRILSADSRRIHLLRVTPISRP,not soluble
2,MSLNYKNYTVMLVDDEQPILNSLKRLIKRLGCNIITFTSPLDALEALKGTSVQLVISDMRMPEMGGEVFLEQVAKSYPDIERVVISGYADAQATIDAVNRGKISRFLLKPWEDEDVFKVVEKGLQLAFLREENLRLQEETEAKNKQEGHHHHHH,soluble
3,MSSKEQKTPEGQAPEEIIMDQHEEIEAVEPEASAEQVDPRDEKVANLEAQLAEAQTRERDGILRVKAEMENLRRRTELDIEKAHKFALEKFINELLPVIDSLDRALEVADKANPDMSAMVEDIELTLKSMLDVVRKFGVEVIAETNVPLDPNVHQAIAMVESDDVAPGNVLGIMQKGYTLNGRTIRAAMVTVAKAKA,soluble
4,MRVLTKKTEEEIRRDFFGPVQEAACKPYLLDVDPRKSWCELSELRLSTLICEFKPIGINKHFHLIGIIERMGKVFDNENAQVEIFLSEENRVAFRNQQRDLLMGGRPERTSYPPKYLCRPSLEMIEDKLKKWFGLRFCEENESYPSEFNSVTDYELPEYIMAEVRELSDKRAERERNTDNGIVESEKKSTIPRRLTEEDENYDIQT,not soluble
5,MNYHTATITCQTTRPIDIIDITADVRSALEESGLQQGTVTLLSRHTTACLNINEREERLMQDMTTWLKRFIPKDGDWLHNIETIDGRDNAHSHLLGLFMNSSETIPFSEGQLMLGKWQSIFFIELDGPRPKREVLVHIQGELEHHHHHH,soluble
6,MSLGAWPTAPITIVVPFAAGQTGDIIARLLGKELAERLKQPFVVDNKGGGGGRIGTAFVAKAKPDGYTLLMTSTGPYAIAPALYPRTMQYDPVRDFTGIAETATTPQIIAVSPKSGINTFADLVKQAKKSDMSYGSAGNGSTQHLTMELLKKELNFPLVHVPFKGSSESKTQVISGMIPVTSDSLPAIYTNIKSGQMKAIAVVDKQRSAYLPDVPTLAESGFPSLSTVAFFGLVAPKNTPKEVVNLLNKNLTEIYRTPDFQQKMKELAMTPPAEKTAEQFTAYLTEEVARWKKIVQDSNVKVEEGHHHHHH,soluble
7,MTARVAGQAVGGQILVGEPVHDAVSDCADIRFGSYRLFSLDAAPGPDLD,not soluble
8,MSGGGVIRGPAGNNDCRIYVGNLPPDIRTKDIEDVFYKYGAIRDIDLKNRRGGPPFAFVEFEDPRDAEDAVYGRDGYDYDGYRLRVEFPRSGRGTG,soluble
9,MGHHHHHHSHMTQDRPLLAVQEALKKCFPVVEEQQGLWQSALRDCQPLLSSLSNLAEQLQAAQNLRFEDVPALRAFPDLKERLRRKQLVAGDIVLDKLGERLAILLKVRDMVSSHVERVFQIYEQHADTVGIDAVLQPSAVSPSVADMLEWLQDIERHYRKSYLKRKYLLSSIQWGDLANIQALPKAWDRISKDEHQDLVQDILLNVSFFLEE,not soluble
10,MAFSMLFTGHAECVKFVKKFNLPLLVTGGGGYTKENVARCWTVETGILLDTELPNEISENDYIKYFAPDFSLKIPGGHIENLNTKSYISSIKVQILENLRYIQHAPSVQMQEVPPDFYIPDFDEDEQNPDVRVDQRSRDKQIQRDDEYFDGDNDNDAS,not soluble
11,MAAEEATEFYLRYYVGHKGKFGHEFLEFEFREDGKLRYANNSNYKNDTIIRKEVFLTPAVLKECKRIVSESEILKEDDNNWPEPDRVGKQELEIVLGNEHISFATSKIGSLVDCQSSNDPEGLRIFYYLVQDLKCLVFSLISLHFKIKPILEHHHHHH,not soluble
12,MKVIIFYTKTGGGHLSACKSLEESLNSMNIPVVTLDSLEFAGHLVSKEICSAYNYIVKSVPELFGALYNAGEKISDHNKKSIIYKLNSFYADNILTVLEEEQPDIIISTHIFATQSLSYLKQKNKVKALTASIVTDYTCAPFWEETDLDYYFLPHKDLIKEFKDKGLDSSKLIAFGLPIDSKFKVKTPKEKAKFNLALKKDKPHILIMGGSMGAGSVKDTTLYISKHLKECNITTICGNNKELFKEISEIKKSNPKIHVLQFTHEMNELMDSADILITKPGGLTSTEAMNKSLPIIMINPIPGVESANCNFFMKHNLGIKSNSLHETLKVCEKLISDKNFYEKIVSSQKLNSNINAAEDICKFLITKYHEIQYNSDNNSLLEHHHHHH,soluble
13,MIRVMATGVFDILHLGHIHYLKESKKLGDELVVVVARDSTARNNGKIPIFDENSRLALISELKVVDRAILGHEGDMMKTVIEVKPDIITLGYDQKFDEAELQSKINKLGITVKIVRISKYDGQLNSSSSVRKKIMELIGERY,not soluble
14,MGSDKIHHHHHHMIHKRSNSPNMKPIIEIKNLAAGYDGRTVLHDVNLNVYERDFLGIIGPNGGGKTTLIKCILGLLKPTAGEINFHAPTEASSHSQLSTSNLPLSLGYLPQYSTIDRKFPISVEEVILSGLSIQKSLTSRFTPEQREKGKHIIARMGLEGLEHRSIGQLSGGQLQRALLGRAIISDPSVLILDEPSTYIDKRFEARLYELLAEINKECAIILVSHDIGTVLQQVKSIACVNETLDYHPDTGVSTEWLERNFNCPIELLGHGTLPHRVLGEHHHHH,not soluble
15,EAYLGVMINDLVTKEISDPYRLLTSRAEHRLWLRNDNLQERLIEKSRALGLVEADVYANYLEQQQKKKQLIDYLQTTTVGQIAALKLNFKNTAQTLFDFTKRAEIKLVDLVQLLPKRFDLDVQSLNQIDIDIKYAGYIKKSEKYFKSLNNLSSVKIPLKLNYHKVPNLASEAIVKLSKIRPTDLSVASQVAGINFNDILAIKHFLDNHE,soluble
16,MGSDKIHHHHHHVLNVNELVKTELHCHLDGSLSLGVIRQLAQMAKITIPAEDEALRKLVSVHGKVDSLMAYLKLFDFVRPLLQTATALELAAYDLVRQAASDKVIYIEVRFAPELSTDQDLTILEAVSAVLVGLNRGQEDFGVLAKLLVCGLKQTNTNQTKELFSAIADLAPKGLVGFDFAGNEADYPTEELRDIIQFTQSLGYPMTFHAGECGCVINVIQALELGIRRIGHGTALTRNPEAIQAFVNSGATLEMCLTSNLQTGAADSIEYFPYRELVEAGANITINTDNRTVSNTTLNREYQLFVEYFGTSKADFYRFNQNAIQASFASEGEKKVLLELLDQQY,not soluble
17,GPGSSAHAPEGKRATKTELGSTSLYVRVGQLTNLRRHPDADRLYVEDMVLGDETRTIVSGLVESYAIEELEGTQCLVVCNMKPKSLMGVTSQGMVLCAKRDTEVKLIRPPAGAKPGDRILFGASYDAAIAAAAPPEPISSNKMSEVLSHLHTNADSVLCWKDEPARHPSGAAVAIADMANCPVS,soluble
18,MSLAQIVTSTKSCTVNPLRMSQPLGAALAFMGLRNCMPLLHGSQGCTSFGLVLFVRHFRESIPLQTTAMSEVATVLGGFENVEQAIVNIVGRTKPDVIGICTTGVTEIKGDDLDGYIKMVRANHPELANVALVPVSTPDFKGAFEDGFAATVTRIVETLVETPAEGAAPDADRINVLAGSHLTPGDIDELRDIIEAFGLVPTFLPDISGSLDGHVPDDFTPTTHGGVSVAEVVAMGGAGHTLAFGEHMRKAAAALEAKAGVPFTLLSRVTGLAAADELMATLAKISGRPVPPKYRRQRSQLVDAMLDGHFYFGGKSVAIGAEPDMLLNIGGWLADMGCTVSAAVTTTTSPSLAQVPSDEVLIGDLEDLERRAEDCDLLVTHSHGRQAAERLSVPLFRMGLPMFDRLGAVHQVAVGYRGTRDLIFAIGNLFIANIKEPDVNSWRSASACPDQTDAEGHHHHHH,soluble
19,MEFKVEDDRISLYADSKRVSWVLYRKHSGEIELLATFTAKGEEGKGYASKVVGEALNYARGFEKIKVSCPYIKSWIEKHGFDRDVEYTKLLEFKEAVEKFNRFHSPEAVAEFMKEEGEVVYVRFTGPFCVSCGVYDYFEDLTQDAEVLDYEEVEDGFIVRYRLL,not soluble
20,MGSDKIHHHHHHMAAKLFGIMMINVQSIELSIVNLRTLRQVERVRSDVSLGEDIYDQHTIDYDSVEQAAQALSGFVQIMNDYGVKDYHLWGSWSLSSANNADYIQDQLLVRTGLKIDWLSSSQETYLRSVAVAVHFPRFKQMITKPTYLLGINSGSVGISHYDQSNFVFSRSLRLGPVRIAEVLEDLQSSVPNYVEVLDDYISSQIVDFGRFLPGRRDQPSNVVMLGVAPFATLFRQQQSKAGVEELSKADFQALYEDVLNASDQYLMDKYEVDEEDVRLIVPELLLINELLQLTNAEKIWLGNVTVLDGLIIQEAIKLGYKKYNFNDQIVTAAKNIADRYNVEPKHRDLVTKFSLHLFDQLKPLHHLGKRERLLLQVAAIVHDVGSYIDPHQHYLHSDYILQATELMGLTDTEKRMVALISRYHSAQTPSKDIRHFGHLQVEQRLLVSKLSAILRIADALDDGRKQKIDKISVSIRNPRVIITCFAHDDLFLENWVFAQKAEFFKEVFGLTPVIKLRGVR,not soluble
21,GLEVTVWNRSAAACEPLVALGAARAEEVGELFGLDVVISMLADDQAIRGVLLDSGALERARPGLIHLSMSTLSLDCVEALDQAHQRQGLAFVAAPVFGRTDVAEAGKLNIVVGGPEEAIEQVKALLEIMGQKTWFFGKDPRGAMAVKISGNFMIASAIESMGESVALVKRLGVEPGRFMELMSSTLFDAPVYRNYGPQIVEQRFTPARFRLVLGLKDVDLALSAGKRHNVPLPLASLLHDVLLEAIAHGDGESDWTALAKVALSRSGQI,not soluble
22,MIIGYARVSSLDQNLERQLENLKTFGAEKIFTEKQSGKSIENRPILQKALNFVRMGDRFIVESIDRLGRNYNEVIHTVNYLKDKEVQLMITSLPMMNEVIGNPLLDKFMKDLIIQILAMVSEQERNESKRRQAQGIQVAKEKGVYKGRPLLYSPNAKDPQKRVIYHRVVEMLEEGQAISKIAKEVNITRQTVYRIKHDNGLSSHHHHHH,soluble
23,SLINNLSTHSYWPNRGQLEVQGLTVKYTEAGRAVLNDISFSVDGGQSVGLLGRTGSGKSTLLSALLGLNYTEGEMFIDGVSSSSMPLEAWRKAFGVVPQKVFILTGTFRMNLDPYGRYSDDELWRVAEEVGLKSVIEQFPDKLDFELKDGGSVLSNGHKQLMCLARSILSKARILLLDEPSSYLDPITLQVLRKTLKQSFSGCTVILSEHKVEPLLECDSFLMIEKSSVKSYDSIQKLMNEMSDLKQAISPAD,not soluble
24,MGSDKIHHHHHHMSFMDQIPGGGNYPKLPVECLPNFPIQPSLTFRGRNDSHKLKNFISEIMLNMSMISWPNDASRIVYCRRHLLNPAAQWANDFVQEQGILEITFDTFIQGLYQHFYKPPDINKIFNAITQLSEAKLGIERLNQRFRKIWDRMPPDFMTEKAAIMTYTRLLTKETYNIVRMHKPETLKDAMEEAYQTTALTERFFPGFELDADGDTIIGATTHLQEEYDSDYDSEDNLTQNGYVHTVRTRRSYNKPMSNHRNRRNNNPSREECIKNRLCFYCKKEGHRLNECRARKASSNRS,not soluble
25,MANNLMSGIIAQQPPIEAESDVHVVKSRLEWGEPAFTILDVRDRSIYNEGHIMGAMSMPIDELTERAAISLDTSRDIYIYGTNDGQTTQAAQILRSAGFKNVSQLKGGFGAWKAIGGATEGIIESRTPAAADDYNVVSRIQNHIETQQK,not soluble
26,MGSDKIHHHHHHMLAGGKMGDMKITRHIHACVEISQGNDRIIIDPGTFGAPDLCGATILVTHNHADHVDPELLKPGMTIYAPRSVAHSIPVECHIVEHGRNFTVGSLSVEVLGSEHAMLTHSMPIAENVGYLINGRVLHPGDTFQPIKDVELALVPVNGPWVKMLDVEGYLKKFPPKRFIGIHDGIVNDRGLAINKKFLTHLGETYGSEYSPLEEGESLEI,not soluble
